Measured values from the RNAGym collection of RNA variant scans (doi:10.1093/molbev/msab373).

B1: Azoarcus group I ribozyme (parent)
chain: GUGCCUUGCGCCGGGAAACCACGCAAGGGAUGGUGUCAAAUUCGGCGAAACCUAAGCGCCCGCCCGGGCGUAUGGCAACGCCGAGCCAAGCUUCGGCGCCUGCGCCGAUGAAGGUGUAGAGACUAGACGGCACCCACCUAAGGCAAACGCUAUGGUGAAGGCAUAGUCCAGGGAGUGGCGAAAGUCACACAAACCGG

Variants of: B1
Experiment: reverse-splicing fitness (ratio to wild type); higher = more active; in vitro selection; Mg2+ level not given
Summary of the method: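 An in vitro group I ribozyme library with randomized positions was T7-transcribed and gel-purified. In triplicate, 10 pmol RNA in EPPS pH 7.5 was reacted with 50 pmoles of a 30-nt RNA substrate for 1 h at 37 °C across several added MgCl2 levels (1–48 mM), then stopped with EDTA. Products were reverse transcribed from a substrate-complementary primer, PCR-amplified and sequenced (HiSeq 4000). Fitness is a variant's read proportion after selection over that before, normalised to wild type.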
For GUGCCUUGCGCCGGGAAACCACGCAAGGGAUGGUGUCAAAUUCGGCGAAACCUAAGCGCCCGCCCGGGCGUAUGGCAACGCUGAGCCAAGCUUCGGCGCCUGCGCCGAUGAAGGUGUAGCGACUAGACGGCACCCACCUAAGGCCAACGAUAUGGUGAAGGCAUAGUCAAGGGAGGGGCGAAAGUCACACAAACCGG [C82U A120C A145C C150A C169A U176G], the reverse-splicing fitness was 0.00369.
For GUGCCUUGCGCCGGGAAACCACGCAAGGGAUGGUGUCAAAUUCGGCGAAACCUAAGCGCCCGCCCGGGCGUAUGGCAACGCUGAGCCAAGCUUCGGCGCCUGCGCCGAUGAAGGUGUAGCGACUAGACGGCACCCACCUAAGGCCAACGAUAUGGUGAAGGCAUAGUCGAGGGAGUGGCGAAAGUCACACAAACCGG [C82U A120C A145C C150A C169G], the reverse-splicing fitness was 0.00551.
Work on GUGCCUUGCGCCGGGAAACCACGCAAGGGAUGGUGUCAAAUUCGGCGAAACCUAAGCGCCCGCCCGGGCGUAUGGCAACGCUGAGCCAAGCUUCGGCGCCUGCGCCGAUGAAGGUGUAGCGACUAGACGGCACCCACCUAAGGCCAACGAUAUGGUGAAGGCAUAGUCGAGGGAGAGGCGAAAGUCACACAAACCGG [C82U A120C A145C C150A C169G U176A] yielded a reverse-splicing fitness of 0.0162.
In the case of GUGCCUUGCGCCGGGAAACCACGCAAGGGAUGGUGUCAAAUUCGGCGAAACCUAAGCGCCCGCCCGGGCGUAUGGCAACGCUGAGCCAAGCUUCGGCGCCUGCGCCGAUGAAGGUGUAGCGACUAGACGGCACCCACCUAAGGCCAACGAUAUGGUGAAGGCAUAGUCGAGGGAGCGGCGAAAGUCACACAAACCGG [C82U A120C A145C C150A C169G U176C], the reverse-splicing fitness is reported as 0.00772.
For GUGCCUUGCGCCGGGAAACCACGCAAGGGAUGGUGUCAAAUUCGGCGAAACCUAAGCGCCCGCCCGGGCGUAUGGCAACGCUGAGCCAAGCUUCGGCGCCUGCGCCGAUGAAGGUGUAGCGACUAGACGGCACCCACCUAAGGCCAACGAUAUGGUGAAGGCAUAGUCGAGGGAGGGGCGAAAGUCACACAAACCGG [C82U A120C A145C C150A C169G U176G], the reverse-splicing fitness was 0.00448.
In the case of GUGCCUUGCGCCGGGAAACCACGCAAGGGAUGGUGUCAAAUUCGGCGAAACCUAAGCGCCCGCCCGGGCGUAUGGCAACGCUGAGCCAAGCUUCGGCGCCUGCGCCGAUGAAGGUGUAGCGACUAGACGGCACCCACCUAAGGCCAACGAUAUGGUGAAGGCAUAGUCUAGGGAGUGGCGAAAGUCACACAAACCGG [C82U A120C A145C C150A C169U], the reverse-splicing fitness is reported as 0.00777.
For GUGCCUUGCGCCGGGAAACCACGCAAGGGAUGGUGUCAAAUUCGGCGAAACCUAAGCGCCCGCCCGGGCGUAUGGCAACGCUGAGCCAAGCUUCGGCGCCUGCGCCGAUGAAGGUGUAGCGACUAGACGGCACCCACCUAAGGCCAACGAUAUGGUGAAGGCAUAGUCUAGGGAGAGGCGAAAGUCACACAAACCGG [C82U A120C A145C C150A C169U U176A], the reverse-splicing fitness was 0.0146.
With GUGCCUUGCGCCGGGAAACCACGCAAGGGAUGGUGUCAAAUUCGGCGAAACCUAAGCGCCCGCCCGGGCGUAUGGCAACGCUGAGCCAAGCUUCGGCGCCUGCGCCGAUGAAGGUGUAGCGACUAGACGGCACCCACCUAAGGCCAACGAUAUGGUGAAGGCAUAGUCUAGGGAGCGGCGAAAGUCACACAAACCGG [C82U A120C A145C C150A C169U U176C] the reverse-splicing fitness was 0.00799.
For GUGCCUUGCGCCGGGAAACCACGCAAGGGAUGGUGUCAAAUUCGGCGAAACCUAAGCGCCCGCCCGGGCGUAUGGCAACGCUGAGCCAAGCUUCGGCGCCUGCGCCGAUGAAGGUGUAGCGACUAGACGGCACCCACCUAAGGCCAACGAUAUGGUGAAGGCAUAGUCUAGGGAGGGGCGAAAGUCACACAAACCGG [C82U A120C A145C C150A C169U U176G], the reverse-splicing fitness was 0.00376.
GUGCCUUGCGCCGGGAAACCACGCAAGGGAUGGUGUCAAAUUCGGCGAAACCUAAGCGCCCGCCCGGGCGUAUGGCAACGCUGAGCCAAGCUUCGGCGCCUGCGCCGAUGAAGGUGUAGCGACUAGACGGCACCCACCUAAGGCCAACGAUAUGGUGAAGGCAUAGUCCAGGGAGAGGCGAAAGUCACACAAACCGG [C82U A120C A145C C150A U176A] showed a reverse-splicing fitness of 0.00873.
For GUGCCUUGCGCCGGGAAACCACGCAAGGGAUGGUGUCAAAUUCGGCGAAACCUAAGCGCCCGCCCGGGCGUAUGGCAACGCUGAGCCAAGCUUCGGCGCCUGCGCCGAUGAAGGUGUAGCGACUAGACGGCACCCACCUAAGGCCAACGAUAUGGUGAAGGCAUAGUCCAGGGAGCGGCGAAAGUCACACAAACCGG [C82U A120C A145C C150A U176C], the reverse-splicing fitness was 0.00962.
GUGCCUUGCGCCGGGAAACCACGCAAGGGAUGGUGUCAAAUUCGGCGAAACCUAAGCGCCCGCCCGGGCGUAUGGCAACGCUGAGCCAAGCUUCGGCGCCUGCGCCGAUGAAGGUGUAGCGACUAGACGGCACCCACCUAAGGCCAACGAUAUGGUGAAGGCAUAGUCCAGGGAGGGGCGAAAGUCACACAAACCGG [C82U A120C A145C C150A U176G] showed a reverse-splicing fitness of 0.00472.
GUGCCUUGCGCCGGGAAACCACGCAAGGGAUGGUGUCAAAUUCGGCGAAACCUAAGCGCCCGCCCGGGCGUAUGGCAACGCUGAGCCAAGCUUCGGCGCCUGCGCCGAUGAAGGUGUAGCGACUAGACGGCACCCACCUAAGGCCAACGGUAUGGUGAAGGCAUAGUCCAGGGAGUGGCGAAAGUCACACAAACCGG [C82U A120C A145C C150G] showed a reverse-splicing fitness of 0.0204.
With GUGCCUUGCGCCGGGAAACCACGCAAGGGAUGGUGUCAAAUUCGGCGAAACCUAAGCGCCCGCCCGGGCGUAUGGCAACGCUGAGCCAAGCUUCGGCGCCUGCGCCGAUGAAGGUGUAGCGACUAGACGGCACCCACCUAAGGCCAACGGUAUGGUGAAGGCAUAGUCAAGGGAGUGGCGAAAGUCACACAAACCGG [C82U A120C A145C C150G C169A] the reverse-splicing fitness was 0.00723.
Work on GUGCCUUGCGCCGGGAAACCACGCAAGGGAUGGUGUCAAAUUCGGCGAAACCUAAGCGCCCGCCCGGGCGUAUGGCAACGCUGAGCCAAGCUUCGGCGCCUGCGCCGAUGAAGGUGUAGCGACUAGACGGCACCCACCUAAGGCCAACGGUAUGGUGAAGGCAUAGUCAAGGGAGAGGCGAAAGUCACACAAACCGG [C82U A120C A145C C150G C169A U176A] yielded a reverse-splicing fitness of 0.00866.
